Among the data in patent US20200002710A1, “SYSTEMS AND METHODS FOR CONTROL OF GENE EXPRESSION” (TRUSTEES OF BOSTON UNIVERSITY, published 2020) are Kd values, retold here.

Holding throughout (assay): FP; fluorescence anisotropy; Zn2+, 25 C
Common to all, as to conditions: tags: N-terminal MBP; C-terminal GS linker + syntrophin ligand S5 (VKESLV)

Data set [1] addresses T1, 43-8 (ZF1) high affinity synTF (artificial).
T1 chain: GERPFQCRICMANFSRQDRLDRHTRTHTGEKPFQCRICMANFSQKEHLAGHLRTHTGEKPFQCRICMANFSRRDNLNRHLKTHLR
As to the method:
(§1) All assays were conducted in 20 mM Tris, pH 7.5, 100 mM […], 50 μM ZnCl2 buffer at 25° C. Proteins, probes, and competitor oligos were added to a final volume of 300 μL. Probes were used at 10 nM in all experiments. For complex assembly experiments (FIG. 1C), indicated concentrations of MBP-ZF₄₃₋₈ harboring a VSKESLV* ligand (SEQ ID NO: 120) (see e.g., FIG. 5A-FIG. 5B, FIG. 7A-FIG. 7B) were titrated against 5 μM concentrations of clamp. Mixtures were allowed to equilibrate at 25° C. for 10 min in Costar black 96-well plates prior to reading. Fluorescence anisotropy (FA) measurements were made at 494 nm using a SpectraMax M5 (Molecular Devices) fluorescence plate reader. For all measurements, anisotropy (r) was calculated using the following equation, wherein I_{∥} and I_{⊥} are parallel and perpendicular fluorescence, respectively:
(§2) TF-DBM binding constants were measured in vitro by fluorescence anisotropy (FA). Recombinant proteins were purified and DBM oligos prepared as described herein. […] Affinities for the interaction were measured as a function of the increase in fluorescence anisotropy resulting from binding of the fusion to a fluorescently labeled (FITC) oligo probe (data not shown). Oligo probe binding to ZF affinity variants was measured. MBP-ZF was titrated against 10 nM oligo probe. […] Kd values were extracted by fitting data to a quadratic binding equation (data not shown). Competition binding experiments were performed to measure binding constants for DBM affinity variants. […] Competitor oligo Kₐ values were extracted by fitting data (converted to fraction probe bound) to a cubic equation describing competitive binding (see e.g., FIG. 6). Sequences for both sets of DBM affinity variants are listed on the right of FIG. 6.

For data set [2], the target named is T2, 43-8 (ZF1) low affinity synTF (artificial, R-to-A backbone (low affinity allele, already in ref)).
T2 chain: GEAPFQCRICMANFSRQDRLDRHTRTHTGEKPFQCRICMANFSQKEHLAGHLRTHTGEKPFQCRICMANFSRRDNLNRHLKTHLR
The method, then:
as §1, §2

Data set [3] concerns the target T3, 42-10 (ZF2) low affinity synTF (artificial, R-to-A backbone (low affinity allele, already in ref)).
T3 chain: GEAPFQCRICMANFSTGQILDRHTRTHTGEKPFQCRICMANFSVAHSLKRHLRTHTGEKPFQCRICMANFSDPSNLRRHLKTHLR
The method, then: as §1, §2

For data set [4], the target named is T4, 42-10 (ZF2) high affinity synTF (artificial).
T4 chain: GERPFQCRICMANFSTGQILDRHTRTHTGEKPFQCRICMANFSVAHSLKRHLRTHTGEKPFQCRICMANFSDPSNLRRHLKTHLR
As to the method:
as §1, §2

B1: 43-8 DBM1 (dsDNA)
DNA 1: AGAGTGAGGAC
DNA 2: GTCCTCACTCT
Consider B1, for which the results for the dissociation constant (Kd) in data set [1] and in data set [2] were 6.5 nM and 13.6 nM, respectively.

B2: 42-10 DBM1 (dsDNA)
DNA 1: AGACGCTGCTC
DNA 2: GAGCAGCGTCT
For the molecule B2, the Kd in data set [3] worked out at 15 nM; in data set [4] it was 2.4 nM.
